From the supplement of paper PMC9112550, “Optimization of the antimicrobial peptide Bac7 by deep mutational scanning” (BMC Biology, 2022)

Tested on: Escherichia coli TOP10
Experiment: shrunken log2 fold change of peptide-encoding DNA abundance (4.5 h post-induction vs induction); higher = less antimicrobial activity (less host growth inhibition)
Conditions: time post-induction: 4.5 h; library: site-saturation at positions 5, 18, 19, 20
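Also: peptides expressed intracellularly from a pBAD plasmid library in pooled LB shake-flask culture, induced with 0.3% L-arabinose, DNA abundance read by NGS, three biological replicates, DESeq2 with apeglm shrinkage.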

| Sequence | shrunken log2 fold change |
| --- | --- |
| RRIRYRPPRLPRPRPRPNVYPRP | -1.2 |
| RRIRYRPPRLPRPRPRPNYAPRP | -0.223 |
| RRIRYRPPRLPRPRPRPPAIPRP | -0.319 |
| RRIRYRPPRLPRPRPRPPAKPRP | 0.441 |
| RRIRYRPPRLPRPRPRPPAPPRP | 0.76 |
| RRIRYRPPRLPRPRPRPPCIPRP | -0.583 |
| RRIRYRPPRLPRPRPRPPCKPRP | 0.0994 |
| RRIRYRPPRLPRPRPRPPCTPRP | -0.33 |
| RRIRYRPPRLPRPRPRPPDWPRP | 0.299 |
| RRIRYRPPRLPRPRPRPPFSPRP | -0.285 |
| RRIRYRPPRLPRPRPRPPFVPRP | -0.304 |
| RRIRYRPPRLPRPRPRPPGYPRP | 1.43 |
| RRIRYRPPRLPRPRPRPPIEPRP | -0.154 |
| RRIRYRPPRLPRPRPRPPKAPRP | -0.0334 |
| RRIRYRPPRLPRPRPRPPKIPRP | 0.152 |
| RRIRYRPPRLPRPRPRPPLMPRP | -0.293 |
| RRIRYRPPRLPRPRPRPPMGPRP | -0.239 |
| RRIRYRPPRLPRPRPRPPNNPRP | -0.708 |
| RRIRYRPPRLPRPRPRPPNTPRP | -0.686 |
| RRIRYRPPRLPRPRPRPPPSPRP | 0.936 |
| RRIRYRPPRLPRPRPRPPPWPRP | 0.358 |
| RRIRYRPPRLPRPRPRPPPYPRP | -0.0871 |
| RRIRYRPPRLPRPRPRPPQGPRP | -0.0838 |
| RRIRYRPPRLPRPRPRPPSCPRP | -0.00175 |
| RRIRYRPPRLPRPRPRPPTYPRP | -0.615 |

| Sequence | shrunken log2 fold change |
| --- | --- |
| RRIRYRPPRLPRPRPRPPVKPRP | -0.102 |
| RRIRYRPPRLPRPRPRPPVTPRP | -0.0969 |
| RRIRYRPPRLPRPRPRPPVYPRP | -0.406 |
| RRIRYRPPRLPRPRPRPPWDPRP | 0.128 |
| RRIRYRPPRLPRPRPRPPYWPRP | -0.22 |
| RRIRYRPPRLPRPRPRPQAFPRP | -0.142 |
| RRIRYRPPRLPRPRPRPQDDPRP | -0.0017 |
| RRIRYRPPRLPRPRPRPQDIPRP | -0.252 |
| RRIRYRPPRLPRPRPRPQDNPRP | -0.024 |
| RRIRYRPPRLPRPRPRPQHHPRP | -0.55 |
| RRIRYRPPRLPRPRPRPQHPPRP | -0.595 |
| RRIRYRPPRLPRPRPRPQKAPRP | -0.0304 |
| RRIRYRPPRLPRPRPRPQKHPRP | -0.777 |
| RRIRYRPPRLPRPRPRPQLCPRP | -0.0902 |
| RRIRYRPPRLPRPRPRPQLQPRP | -0.137 |
| RRIRYRPPRLPRPRPRPQLRPRP | -0.193 |
| RRIRYRPPRLPRPRPRPQMRPRP | -0.00174 |
| RRIRYRPPRLPRPRPRPQNPPRP | -0.483 |
| RRIRYRPPRLPRPRPRPQNRPRP | -0.0755 |
| RRIRYRPPRLPRPRPRPQQDPRP | -0.0899 |
| RRIRYRPPRLPRPRPRPQQLPRP | -0.181 |
| RRIRYRPPRLPRPRPRPQQMPRP | -0.232 |
| RRIRYRPPRLPRPRPRPQQWPRP | 0.155 |
| RRIRYRPPRLPRPRPRPQRMPRP | -0.74 |
| RRIRYRPPRLPRPRPRPQSKPRP | -0.607 |

| Sequence | shrunken log2 fold change |
| --- | --- |
| RRIRYRPPRLPRPRPRPQTTPRP | -0.0405 |
| RRIRYRPPRLPRPRPRPQWNPRP | -0.108 |
| RRIRYRPPRLPRPRPRPQWWPRP | 0.0898 |
| RRIRYRPPRLPRPRPRPRAFPRP | -0.677 |
| RRIRYRPPRLPRPRPRPRCMPRP | -0.425 |
| RRIRYRPPRLPRPRPRPRCYPRP | 0.0145 |
| RRIRYRPPRLPRPRPRPRDIPRP | -0.0839 |
| RRIRYRPPRLPRPRPRPRDTPRP | -0.378 |
| RRIRYRPPRLPRPRPRPRFAPRP | -0.152 |
| RRIRYRPPRLPRPRPRPRFVPRP | -1.02 |
| RRIRYRPPRLPRPRPRPRGMPRP | -0.019 |
| RRIRYRPPRLPRPRPRPRGQPRP | 0.0255 |
| RRIRYRPPRLPRPRPRPRIRPRP | 0.0291 |
| RRIRYRPPRLPRPRPRPRIVPRP | -0.369 |
| RRIRYRPPRLPRPRPRPRKRPRP | 0.266 |
| RRIRYRPPRLPRPRPRPRKTPRP | -0.00513 |
| RRIRYRPPRLPRPRPRPRMKPRP | -0.241 |
| RRIRYRPPRLPRPRPRPRMVPRP | -0.475 |
| RRIRYRPPRLPRPRPRPRNKPRP | -0.661 |
| RRIRYRPPRLPRPRPRPRPFPRP | -0.104 |
| RRIRYRPPRLPRPRPRPRPIPRP | -0.0521 |
| RRIRYRPPRLPRPRPRPRPTPRP | 0.363 |
| RRIRYRPPRLPRPRPRPRQVPRP | -0.206 |
| RRIRYRPPRLPRPRPRPRRPPRP | -0.0739 |
| RRIRYRPPRLPRPRPRPRRRPRP | -0.0051 |

| Sequence | shrunken log2 fold change |
| --- | --- |
| RRIRYRPPRLPRPRPRPRSEPRP | 0.0596 |
| RRIRYRPPRLPRPRPRPRSWPRP | -0.0913 |
| RRIRYRPPRLPRPRPRPRTAPRP | -0.0512 |
| RRIRYRPPRLPRPRPRPRTMPRP | -1.72 |
| RRIRYRPPRLPRPRPRPRWGPRP | 0.12 |
| RRIRYRPPRLPRPRPRPRWVPRP | -0.0064 |
| RRIRYRPPRLPRPRPRPRYFPRP | -0.212 |
| RRIRYRPPRLPRPRPRPSAKPRP | -0.117 |
| RRIRYRPPRLPRPRPRPSCLPRP | -0.56 |
| RRIRYRPPRLPRPRPRPSCNPRP | -1.43 |
| RRIRYRPPRLPRPRPRPSDAPRP | -0.386 |
| RRIRYRPPRLPRPRPRPSDHPRP | -0.42 |
| RRIRYRPPRLPRPRPRPSEEPRP | -0.111 |
| RRIRYRPPRLPRPRPRPSERPRP | -0.417 |
| RRIRYRPPRLPRPRPRPSESPRP | -0.0299 |
| RRIRYRPPRLPRPRPRPSEVPRP | -0.177 |
| RRIRYRPPRLPRPRPRPSGIPRP | -0.119 |
| RRIRYRPPRLPRPRPRPSGRPRP | -0.261 |
| RRIRYRPPRLPRPRPRPSILPRP | -1.25 |
| RRIRYRPPRLPRPRPRPSIMPRP | -1.54 |
| RRIRYRPPRLPRPRPRPSKAPRP | -0.223 |
| RRIRYRPPRLPRPRPRPSKDPRP | -0.642 |
| RRIRYRPPRLPRPRPRPSKMPRP | -0.365 |
| RRIRYRPPRLPRPRPRPSLDPRP | -1.07 |
| RRIRYRPPRLPRPRPRPSLLPRP | -0.727 |

| Sequence | shrunken log2 fold change |
| --- | --- |
| RRIRYRPPRLPRPRPRPSMFPRP | -1.02 |
| RRIRYRPPRLPRPRPRPSPGPRP | -0.726 |
| RRIRYRPPRLPRPRPRPSPMPRP | -0.486 |
| RRIRYRPPRLPRPRPRPSQEPRP | -0.748 |
| RRIRYRPPRLPRPRPRPSRKPRP | 0.0647 |
| RRIRYRPPRLPRPRPRPSSNPRP | -0.634 |
| RRIRYRPPRLPRPRPRPSTKPRP | -0.225 |
| RRIRYRPPRLPRPRPRPSTQPRP | -0.641 |
| RRIRYRPPRLPRPRPRPSVWPRP | 0.0896 |
| RRIRYRPPRLPRPRPRPSWWPRP | -0.511 |
| RRIRYRPPRLPRPRPRPSWYPRP | -0.772 |
| RRIRYRPPRLPRPRPRPSYFPRP | -0.684 |
| RRIRYRPPRLPRPRPRPTCQPRP | -0.0443 |
| RRIRYRPPRLPRPRPRPTDDPRP | 0.0131 |
| RRIRYRPPRLPRPRPRPTDVPRP | -0.122 |
| RRIRYRPPRLPRPRPRPTESPRP | 0.0538 |
| RRIRYRPPRLPRPRPRPTFKPRP | -0.445 |
| RRIRYRPPRLPRPRPRPTGIPRP | -0.114 |
| RRIRYRPPRLPRPRPRPTGMPRP | 0.0495 |
| RRIRYRPPRLPRPRPRPTKRPRP | -0.028 |
| RRIRYRPPRLPRPRPRPTLEPRP | -0.136 |
| RRIRYRPPRLPRPRPRPTLSPRP | -0.0535 |
| RRIRYRPPRLPRPRPRPTMAPRP | 0.12 |
| RRIRYRPPRLPRPRPRPTMIPRP | -0.455 |
| RRIRYRPPRLPRPRPRPTPCPRP | -0.122 |

| Sequence | shrunken log2 fold change |
| --- | --- |
| RRIRYRPPRLPRPRPRPTPFPRP | -0.27 |
| RRIRYRPPRLPRPRPRPTQNPRP | 0.298 |
| RRIRYRPPRLPRPRPRPTQWPRP | 0.413 |
| RRIRYRPPRLPRPRPRPTRNPRP | -0.404 |
| RRIRYRPPRLPRPRPRPTSKPRP | 0.902 |
| RRIRYRPPRLPRPRPRPTSLPRP | -0.0466 |
| RRIRYRPPRLPRPRPRPTTAPRP | -0.415 |
| RRIRYRPPRLPRPRPRPTTFPRP | -0.645 |
| RRIRYRPPRLPRPRPRPTTTPRP | -0.00235 |
| RRIRYRPPRLPRPRPRPTVFPRP | -0.317 |
| RRIRYRPPRLPRPRPRPTWLPRP | 0.00076 |
| RRIRYRPPRLPRPRPRPVAEPRP | -0.0801 |
| RRIRYRPPRLPRPRPRPVARPRP | -0.206 |
| RRIRYRPPRLPRPRPRPVAWPRP | 0.00214 |
| RRIRYRPPRLPRPRPRPVCDPRP | -0.623 |
| RRIRYRPPRLPRPRPRPVEEPRP | -0.32 |
| RRIRYRPPRLPRPRPRPVEQPRP | -0.191 |
| RRIRYRPPRLPRPRPRPVFNPRP | -1.32 |
| RRIRYRPPRLPRPRPRPVGMPRP | -0.083 |
| RRIRYRPPRLPRPRPRPVGSPRP | -0.277 |
| RRIRYRPPRLPRPRPRPVHSPRP | -0.155 |
| RRIRYRPPRLPRPRPRPVKKPRP | -0.0286 |
| RRIRYRPPRLPRPRPRPVKMPRP | -0.392 |
| RRIRYRPPRLPRPRPRPVKPPRP | 0.00519 |
| RRIRYRPPRLPRPRPRPVKQPRP | -0.00131 |
